Data: publication PMC11133372 (Communications Biology, 2024)

Molecular target: T1, human epidermal growth factor receptor 2 (HER2) (Homo sapiens, UniProt P04626)
T1 construct: human HER2, cDNA expressed as HER2-T2A-mCherry; HER2 on the cell surface, mCherry intracellular after T2A self-cleavage; residues of it may stay on the C-terminus after self-cleavage (surmise); also called K562/HER2 cells; source: K562, lentiviral transduction with pCSII/HER2-mCherry, on the cell surface
Experiment: flow cytometry on cells; K562/HER2 cells incubated with 0.5-1600 nM purified scFv-scFc-H6 for 90 min at 4 °C, detected with AF488-conjugated anti-HisTag antibody; 3% FBS-PBS
Details: one partner purified

Row | binding result | Binder
1 | no binding (tested: 1600 nM) | scFv(Niv), scFv of PD-1 targeting nivolumab, purified as scFv-scFc-H6 fusion protein (Fc fusion, scFv of nivolumab; Control scFv; not shown: single-chain Fc (two human IgG1 Fc domains; residues 104-330 of UniProt P01857), C-terminal, kept; His6, C-terminal, kept) VH: QVQLVESGGGVVQPGRSLRLDCKASGITFSNSGMHWVRQAPGKGLEWVAVIWYDGSKRYYADSVKGRFTISRDNSKNTLFLQMNSLRAEDTAVYYCATNDDYWGQGTLVTVSS VL: EIVLTQSPATLSLSPGERATLSCRASQSVSSYLAWYQQKPGQAPRLLIYDASNRATGIPARFSGSGSGTDFTLTISSLEPEDFAVYYCQQSSNWPRTFGQGTKVEIK
2 | no binding (tested: 1600 nM) | scFv(Dac), scFv of the CD25-targeting monoclonal antibody daclizumab, purified as scFv-scFc-H6 fusion protein (Fc fusion, scFv of daclizumab; Control scFv; not shown: single-chain Fc (two human IgG1 Fc domains; residues 104-330 of UniProt P01857), C-terminal, kept; His6, C-terminal, kept) VH: QVQLVQSGAEVKKPGSSVKVSCKASGYTFTSYRMHWVRQAPGQGLEWIGYINPSTGYTEYNQKFKDKATITADESTNTAYMELSSLRSEDTAVYYCARGGGVFDYWGQGTLVTVSS VL: DIQMTQSPSTLSASVGDRVTITCSASSSISYMHWYQQKPGKAPKLLIYTTSNLASGVPARFSGSGSGTEFTLTISSLQPDDFATYYCHQRSTYPLTFGQGTKVEVK
